# Source: the supplement of paper PMC10724198
# ± gives the standard deviation of the averaged measurements.
# Test system: Saccharomyces cerevisiae
# Experiment: protein stability index of tFT-peptide fusion (C-terminal peptide) (PSI (0-1 scale)); higher = more stable (slower turnover)
# Conditions: genetic background: wild type; temperature: 30 C
# Method: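 Multiplexed protein stability (MPS) profiling in S. cerevisiae. Random 12-aa peptides (tFT-X12 library) are fused to the C-terminus of a sfGFP-mCherry tandem fluorescent timer, after mCherry and a GGGS linker. Cells are FACS-sorted into 8 mCherry/sfGFP bins and deep-sequenced. The protein stability index (PSI) is the read-weighted bin average, scaled from 0 (unstable) to 1 (stable). Only peptides with >10 reads are reported; cells were grown at 30 °C in SC-His with glucose.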
# 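Also: PSI is a weighted mean of sequencing reads over stability bins, variants kept only with over 10 reads, mCherry proximal and sfGFP distal, peptide attached via GGGS linker.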
row,Sequence,protein stability index
1,FPPPSPPPLSPC,0.689 ± 0.024
2,FPQHPLFDPPAF,0.793 ± 0.013
3,FPRLTYAPFLAD,0.722 ± 0.02
4,FPRPLPPLSPLL,0.7162 ± 0.0037
5,FPSCSAGLHLNL,0.7521 ± 0.0034
6,FPSFHLCNIPST,0.757 ± 0.076
7,FPSPPPGPHPSP,0.76336 ± 0.00013
8,FPSSLPSAFPCP,0.675 ± 0.016
9,FPSSPPAHAAPH,0.68 ± 0.019
10,FPVWVKGLLGMG,0.636 ± 0.048
11,FQPQPSPAHPSH,0.693 ± 0.023
12,FRFNPGSCSRPV,0.681 ± 0.016
13,FRLICSRQFFAG,0.593 ± 0.018
14,FRPLPPPPPSPT,0.672 ± 0.052
15,FRQQGGERVRWG,0.66 ± 0.0088
16,FRSPRFLRSPPR,0.793 ± 0.064
17,FRTLVEAGSLMD,0.6995 ± 0.00077
18,FRVEWKPLYHGI,0.623 ± 0.037
19,FRVHSFRLSCLS,0.574 ± 0.022
20,FSAVRIQASLRW,0.629 ± 0.028
21,FSCPALCSCLAV,0.604 ± 0.087
22,FSFLFSFFFSFL,0.55971 ± 7.1e-07
23,FSFVPRHGVSFR,0.6349 ± 0.0059
24,FSFVTFYSICDV,0.528 ± 0.012
25,FSGGGRGLGGEV,0.684 ± 0.024
26,FSHRPSPLSLSL,0.719 ± 0.11

row,Sequence,protein stability index
1,FSKSRLRNLKLK,0.655 ± 0.016
2,FSLGQCLFGLWV,0.612 ± 0.026
3,FSLHPGTYLVVL,0.5913 ± 0.0026
4,FSLSVVGLSRWG,0.78 ± 0.1
5,FSLTPSDPFPPA,0.681 ± 0.043
6,FSLYSFSSSFSF,0.677 ± 0.033
7,FSPLARMGSGTL,0.701 ± 0.0073
8,FSPPSPPHPSPL,0.741 ± 0.023
9,FSPSPPPPAPLH,0.729 ± 0.13
10,FSRCRRGLVLCL,0.479 ± 0.045
11,FSRLNAKLPCLA,0.579 ± 0.06
12,FSSSSVRINLGV,0.663 ± 0.01
13,FSTIWSLPLSPR,0.716 ± 0.038
14,FSYCFRLLPSSL,0.558 ± 0.096
15,FTCVVRRGDIQL,0.675 ± 0.056
16,FTFFFNCYSRSS,0.655 ± 0.038
17,FTPPPLLLPPPP,0.698 ± 0.0037
18,FTWRTIRPRCQW,0.7184 ± 0.005
19,FTYGPVQGAARG,0.717 ± 0.015
20,FVCCSIRFGCGW,0.604 ± 0.014
21,FVFDVTAYRGLL,0.738 ± 0.03
22,FVFWCFGSFCSC,0.553 ± 0.015
23,FVGMLSDRAPPP,0.742 ± 0.041
24,FVGSFYWSGFYV,0.70213 ± 0.00049
25,FVGSVFWCWSGR,0.706 ± 0.032
26,FVLLSPRYSPPR,0.676 ± 0.027

row,Sequence,protein stability index
1,FVSFTAVALFFG,0.567 ± 0.035
2,FVSGSVCPLLPP,0.667 ± 0.026
3,FVSVSVRFHHSF,0.575 ± 0.056
4,FVVAERSDRNLV,0.6875 ± 0.00093
5,FWGGGRGLVGEV,0.664 ± 0.024
6,FWGQNKVCLSCQ,0.571 ± 0.09
7,FWGRYIGRDRGT,0.62 ± 0.12
8,FWMIYPHLLTPP,0.629 ± 0.036
9,FYCSWGGNDVDN,0.692 ± 0.075
10,FYLLTASVCGMF,0.53 ± 0.0053
11,FYPRPTVPPHGL,0.585 ± 0.024
12,GAAKDYLMALEG,0.705 ± 0.076
13,GAAVWGPLCVWL,0.6534 ± 0.0052
14,GAEAFWAVRGGG,0.721 ± 0.009
15,GAGAVRPPARAS,0.699 ± 0.059
16,GAGGGRSERERG,0.593 ± 0.0074
17,GAGLSLALSGPL,0.607 ± 0.0094
18,GAGRGLRQGSGG,0.666 ± 0.043
19,GAIKKTQGGGYK,0.69 ± 0.019
20,GAKVALLSFGFA,0.667 ± 0.1
21,GALPPPPARGDL,0.768 ± 0.024
22,GAMVVRSSSPWT,0.685 ± 0.019
23,GANSILRDIEFL,0.69 ± 0.05
24,GARGGSGGGQPG,0.661 ± 0.019
25,GARGIHSVRVRR,0.713 ± 0.053
26,GARGLVGHWRRG,0.615 ± 0.035

row,Sequence,protein stability index
1,GARGRAYDRTSQ,0.669 ± 0.038
2,GASSSPAQGCSL,0.691 ± 0.048
3,GATAGNPEATPS,0.624 ± 0.074
4,GATLGRQEPGHS,0.671 ± 0.056
5,GAVGDRVRVCGS,0.668 ± 0.02
6,GAWVAVTWAAGL,0.729 ± 0.018
7,GAWVFLSSRVVH,0.7227 ± 0.0054
8,GCCACDIGGEGG,0.642 ± 0.0079
9,GCCWVVISPAGY,0.616 ± 0.044
10,GCFGLLVSSLFS,0.7111 ± 0.0024
11,GCGARSVQSLGD,0.707 ± 0.039
12,GCGGGVCGWWDA,0.916 ± 0.12
13,GCGGVGGFGGGL,0.605 ± 0.047
14,GCGREGGGLDKD,0.781 ± 0.094
15,GCGRGGIAGGPR,0.702 ± 0.0014
16,GCGSVVVGVGGG,0.652 ± 0.028
17,GCLCWVLSGRGA,0.68 ± 0.035
18,GCQLLSEVSVCL,0.667 ± 0.0079
19,GCRRGGGFLECV,0.633 ± 0.034
20,GCRRGGGMERAQ,0.649 ± 0.05
21,GCSLWCPDFCLC,0.665 ± 0.0097
22,GCVVLGFDSVAV,0.842 ± 0.2
23,GDECHSCSSPIA,0.786 ± 0.13
24,GDGGCKVEWVRG,0.724 ± 0.012
25,GDGLGFNRPNGR,0.659 ± 0.025
26,GDGWPTRSGGTG,0.701 ± 0.01

row,Sequence,protein stability index
1,GDISILGSEYSM,0.728 ± 0.0091
2,GDLASASAWGVR,0.681 ± 0.026
3,GDPWLGVRNAVG,0.749 ± 0.22
4,GDQTLVSSRQSG,0.6603 ± 0.002
5,GDRGFTTEAGNC,0.67 ± 0.018
6,GDRGTLTPLRRQ,0.678 ± 0.0073
7,GDSSRVGPVGRA,0.714
8,GDVRLWMRGIER,0.803 ± 0.077
9,GEECGRERLMCF,0.7291 ± 0.0055
10,GEEEGSQGGCEV,0.6611 ± 0.0061
11,GEGFLRVGLADV,0.761 ± 0.09
12,GEGLGIGGYVRG,0.672 ± 0.044
13,GEKSSDDYEVKD,0.6554 ± 0.002
14,GESGGVGGQCWR,0.74 ± 0.0082
15,GESPSRVRSSAG,0.694 ± 0.036
16,GESSLSTGAQHK,0.67 ± 0.021
17,GESWEKVMNKRM,0.704 ± 0.049
18,GFAALLSSLFFL,0.683 ± 0.061
19,GFAIWRDGKYRR,0.674 ± 0.022
20,GFCSVIVLSLLL,0.487 ± 0.041
21,GFFSCAPFPFNG,0.741 ± 0.082
22,GFGILGLPQPCV,0.662 ± 0.067
23,GFINYDHKVIRI,0.77 ± 0.023
24,GFLCGFVGVFAD,0.56953 ± 0.00032
25,GFLGTLARAGRE,0.657 ± 0.068
26,GFLVALVSRIGW,0.565 ± 0.037

row,Sequence,protein stability index
1,GFRALRCPTAFS,0.742 ± 0.078
2,GFRFSERRFPGL,0.733 ± 0.0092
3,GFRGGAYRWCIS,0.701 ± 0.03
4,GFSGLRGFWSGM,0.713 ± 0.04
5,GFSGSPWSNPFV,0.8663 ± 0.0025
6,GFSKNCSCVVLC,0.559 ± 0.029
7,GFVGTVHLKCIS,0.642 ± 0.031
8,GFVRGDRSGVGG,0.702 ± 0.036
9,GFWSRIGDLFRG,0.698 ± 0.037
10,GGAGEAWGGLRW,0.767 ± 0.025
11,GGAGGVVGGGGG,0.616 ± 0.018
12,GGARVAVCEGGE,0.771 ± 0.026
13,GGAVRSGRLFCC,0.648 ± 0.022
14,GGAWESGRVEQV,0.684 ± 0.041
15,GGCAGGVGRLAV,0.692 ± 0.011
16,GGCFGGVGGGSG,0.707 ± 0.034
17,GGCLSVLGLGSV,0.688 ± 0.031
18,GGCRQKPRGGAD,0.666 ± 0.09
19,GGCSDKVVRGGV,0.695 ± 0.014
20,GGCVGVLGGWGV,0.695 ± 0.012
21,GGDGGGERGEGK,0.701 ± 0.027
22,GGDVHGEGNVCG,0.698 ± 0.027
23,GGDWVGHVLDLW,0.708 ± 0.012
24,GGEGGWLGEGIG,0.59 ± 0.0098
25,GGESENEVGSRS,0.644 ± 0.038
